Test results taken from article PMC12552129, “Methylthio-alkane reductases use nitrogenase metalloclusters for carbon–sulfur bond cleavage” (Nature Catalysis, 2025).
Several values for one entry are separate records, joined by “and”; a condition that tells them apart may be missing. Equal entries are not always repeated.

T1: Mar(DK)2, catalytic component of the methylthio-alkane reductase from Rhodospirillum rubrum (Rhodospirillum rubrum, UniProt Q2RW97 1-511; Q2RW98 1-466)
T1 construct: MarD of Rhodospirillum rubrum, as the chain of m2; MarK of Rhodospirillum rubrum, as the chain of m3; Heterotetramer by mass photometry (227 kDa measured, 217 kDa theoretical); holds two P-clusters and two [Fe8S9C]-clusters; No tag cleavage is described; The deposited model (MarDK2H2) holds only one of the two MarD copies; copies: 2 + 2
T1 sequence 1: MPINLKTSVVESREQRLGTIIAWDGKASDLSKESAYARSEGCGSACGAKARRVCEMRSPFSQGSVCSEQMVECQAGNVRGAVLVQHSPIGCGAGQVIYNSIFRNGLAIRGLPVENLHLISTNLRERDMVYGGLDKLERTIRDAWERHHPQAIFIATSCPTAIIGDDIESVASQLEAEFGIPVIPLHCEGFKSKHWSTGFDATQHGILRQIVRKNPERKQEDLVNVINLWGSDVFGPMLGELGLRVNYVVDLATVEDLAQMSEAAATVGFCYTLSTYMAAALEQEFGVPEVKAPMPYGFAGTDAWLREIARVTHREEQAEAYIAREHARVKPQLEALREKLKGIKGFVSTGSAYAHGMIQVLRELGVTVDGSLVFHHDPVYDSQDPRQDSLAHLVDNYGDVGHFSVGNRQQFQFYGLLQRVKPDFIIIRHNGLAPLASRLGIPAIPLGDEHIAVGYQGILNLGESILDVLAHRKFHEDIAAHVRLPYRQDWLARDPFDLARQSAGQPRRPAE
T1 sequence 2: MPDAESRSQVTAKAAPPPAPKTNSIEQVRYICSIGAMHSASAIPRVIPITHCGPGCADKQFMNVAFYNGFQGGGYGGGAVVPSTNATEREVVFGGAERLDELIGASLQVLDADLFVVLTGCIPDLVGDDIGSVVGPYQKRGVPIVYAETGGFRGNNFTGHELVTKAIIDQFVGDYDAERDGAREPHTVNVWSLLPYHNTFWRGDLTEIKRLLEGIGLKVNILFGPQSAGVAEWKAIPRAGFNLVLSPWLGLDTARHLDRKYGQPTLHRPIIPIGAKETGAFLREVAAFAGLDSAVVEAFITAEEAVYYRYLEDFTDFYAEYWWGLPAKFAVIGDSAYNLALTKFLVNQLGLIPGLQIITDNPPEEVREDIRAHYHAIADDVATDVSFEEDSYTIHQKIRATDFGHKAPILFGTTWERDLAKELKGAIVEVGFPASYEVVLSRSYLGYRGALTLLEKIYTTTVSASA

T2: MarD subunit of the methylthio-alkane reductase catalytic component from Rhodospirillum rubrum (Strep-tagged) (Rhodospirillum rubrum, UniProt Q2RW97 1-511)
T2 construct: MarD, subunit of the catalytic component of the methylthio-alkane reductase (marHDK) of Rhodospirillum rubrum; 57.5 kDa with the Strep tag; Holds the [Fe8S9C]-cluster; also called D1; source: Rhodobacter capsulatus MM0422 (plasmid-based, anfH promoter), soluble fraction of the lysate; purified anaerobically with MarK (Strep-Tactin XT 4Flow, PD-10 desalting); not shown: Strep-tag II, C-terminal, …
T2 sequence: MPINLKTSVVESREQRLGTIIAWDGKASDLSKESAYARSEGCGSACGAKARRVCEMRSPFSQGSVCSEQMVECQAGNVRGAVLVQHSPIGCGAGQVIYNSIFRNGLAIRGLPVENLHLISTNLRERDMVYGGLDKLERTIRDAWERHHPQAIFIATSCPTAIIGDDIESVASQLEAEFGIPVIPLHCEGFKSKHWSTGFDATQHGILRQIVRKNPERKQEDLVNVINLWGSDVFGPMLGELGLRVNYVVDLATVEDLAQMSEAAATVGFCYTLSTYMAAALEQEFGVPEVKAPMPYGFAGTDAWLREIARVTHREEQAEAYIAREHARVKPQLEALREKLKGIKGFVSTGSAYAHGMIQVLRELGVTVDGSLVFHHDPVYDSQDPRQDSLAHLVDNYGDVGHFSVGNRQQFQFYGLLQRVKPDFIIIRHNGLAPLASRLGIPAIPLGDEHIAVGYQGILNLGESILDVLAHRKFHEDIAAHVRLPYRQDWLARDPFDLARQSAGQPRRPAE


Columns and labels:
[1] = target: T1, Mar(DK)2, catalytic component of the …; assay: cryo-EM structure; MgADP-AlF3-trapped complex: 22 nmol MarH2 and 3 nmol Mar(DK)2 in 100 mM MOPS pH 7.3, 50 mM Tris pH 7.8, 100 mM NaCl, 5 mM DT, 4 mM NaF, 0.2 mM AlCl3, 8 mM MgCl2, 1 mM ATP, 3 h at 30 °C; isolated by size-exclusion chromatography (HiLoad 26/600 Superdex 200 pg); anaerobic single-particle cryo-EM; conditions: both partners purified
[2] = target: the molecule itself; assay: mass photometry; TwoMP mass photometer; 0.5 µl of sample (500 nM stock, 4 mM sodium DT) added to 19.5 µl anaerobic measurement buffer (150 mM NaCl, 50 mM Tris pH 7.8, 10% glycerol, 10 mM sodium DT); each component measured alone
[3] = target: T2, MarD subunit of the methylthio-alkane …; assay: as above; conditions: both partners purified

Row | Binder | stoichiometry N [1] | stoichiometry N [2] | binding result [3]
1 | MarH2, reductase component of the methylthio-alkane reductase from Rhodospirillum rubrum (His-tagged MarH) (enzyme, MarH, reductase subunit of the methylthio-alkane reductase (marHDK) of Rhodospirillum rubrum; 31.9 kDa with the His tag; Homodimer by mass photometry; holds one [Fe4S4]-cluster in the dimer interface; No tag cleavage is described, and the theoretical mass of 64 kDa equals twice the 31.9 kDa of His-tagged MarH; also called H1 and H2; source: Rhodobacter capsulatus MM0422 (plasmid-based, anfH …)) AKSPKQIAIYGKGGIGKSTTTSNISAALAEAGYKVMQFGCDPKSDSTNTLRGGDYIPSVLDLLRENARVDAHEAIFQGFGGIYCVEAGGPAPGVGCAGRGIITAVELLKQQNVFEELDLDYVIFDVLGDVVCGGFAVPIREGIAEHVFTVSSSDFMAIYAANNLFKGIQKYSNAGGALLGGVIANSINTDFHRDIIDDFVARTQTQVVQYVPRSLTVTQAELQGRTTIEAAPESAQAEIYRTLARSIADHTDSKVPTPLNAQELRDWSASWANQLIEIERASQPIPALAS | 1 and 2 | 2 | –
2 | MarK subunit of the methylthio-alkane reductase catalytic component from Rhodospirillum rubrum (enzyme, MarK, subunit of the catalytic component of the methylthio-alkane reductase (marHDK) of Rhodospirillum rubrum; 50.8 kDa; No tag is described for MarK; also called K1 and K2; source: Rhodobacter capsulatus MM0422 (plasmid-based, anfH promoter), soluble fraction of the lysate; purified anaerobically with Strep-tagged MarD (Strep-Tactin XT 4Flow, PD-10 desalting)) MPDAESRSQVTAKAAPPPAPKTNSIEQVRYICSIGAMHSASAIPRVIPITHCGPGCADKQFMNVAFYNGFQGGGYGGGAVVPSTNATEREVVFGGAERLDELIGASLQVLDADLFVVLTGCIPDLVGDDIGSVVGPYQKRGVPIVYAETGGFRGNNFTGHELVTKAIIDQFVGDYDAERDGAREPHTVNVWSLLPYHNTFWRGDLTEIKRLLEGIGLKVNILFGPQSAGVAEWKAIPRAGFNLVLSPWLGLDTARHLDRKYGQPTLHRPIIPIGAKETGAFLREVAAFAGLDSAVVEAFITAEEAVYYRYLEDFTDFYAEYWWGLPAKFAVIGDSAYNLALTKFLVNQLGLIPGLQIITDNPPEEVREDIRAHYHAIADDVATDVSFEEDSYTIHQKIRATDFGHKAPILFGTTWERDLAKELKGAIVEVGFPASYEVVLSRSYLGYRGALTLLEKIYTTTVSASA | – | – | binds
